From patent US12202907B2, “Nucleic acids encoding and methods of producing proteins comprising antibody chains” (Innate Pharma, priority 2018, dated 2025)

How the values were obtained:
[1] = biological target: T1, Human CD39-L1 (NTPDase2, ENTPD2) (Homo sapiens, UniProt Q9Y5L3); assay: ELISA titration on CD39-L1; type: binding
T1 sequence (Q9Y5L3 1-472 isoform Q9Y5L3-2): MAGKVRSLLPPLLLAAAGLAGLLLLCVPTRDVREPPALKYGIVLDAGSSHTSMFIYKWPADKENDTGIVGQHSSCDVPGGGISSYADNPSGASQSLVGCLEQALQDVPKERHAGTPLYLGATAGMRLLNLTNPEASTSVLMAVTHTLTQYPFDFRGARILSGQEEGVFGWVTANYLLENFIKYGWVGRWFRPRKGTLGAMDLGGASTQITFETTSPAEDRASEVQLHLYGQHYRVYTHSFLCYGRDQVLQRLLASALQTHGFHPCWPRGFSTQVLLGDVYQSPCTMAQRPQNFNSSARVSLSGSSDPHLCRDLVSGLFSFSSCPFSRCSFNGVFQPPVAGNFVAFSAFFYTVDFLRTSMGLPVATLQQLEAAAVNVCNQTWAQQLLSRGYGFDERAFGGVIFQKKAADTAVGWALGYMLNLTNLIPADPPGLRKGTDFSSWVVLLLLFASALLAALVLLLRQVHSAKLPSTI
Method: Antibody I-394 was tested for binding to recombinant human CD39 isoforms (Rec-huCD39 isoforms) having amino acid sequences shown below were coated in 96-well plate in PBS 1X at 500 ng/ml or 1 μg/ml at 4° C. overnight. Wells were washed in TBS Tween® 20 (polysorbate 20), and further saturated 2H at RT in TBS Blocking buffer. Dose range concentration of primary antibody was incubated in TBS blocking buffer for 2 h at RT. Wells were washed in TBS Tween® 20 (polysorbate 20). […] Optical density was measured on Enspire™ at OD=450.

allogenic CD4 T cells = assay: Mixed lymphocytes reaction (MLR) with ATP-activated DC; type: cell-based, human; details: MoDC activated in presence of ATP and antibody
Method: Briefly, human monocytes were purified from human healthy blood and differentiated into MoDC in presence of GM-CSF and IL-4 during 6 days. Then MoDC were activated in presence of ATP (Sigma, 0.25-1 mM) during 24 hours and DC activation were assessed by analyzing CD80, CD83 and HLA-DR expression by flow cytometry. In some cases, MoDC were preincubated for 1 hour in presence of CD39 inhibitor: […] (Tocris, 250 μM), CD73 inhibitor: APCP (Tocris 50 μM), anti-CD39 blocking antibody I-394 or BY40 (for BY40 see WO2009/095478), or anti-CD73 blocking antibodies. LPS (Invivogen, 10 ng/ml) was used as positive control. To assess resulting effect of ATP-mediated DC activation on CD4 T cells activation, ATP-activated DC were washed and then incubated with allogenic CD4 T cells (ratio 1 MoDC/4 T cells) for a mixed lymphocytes reaction (MLR) during 5 days. T cells activation and proliferation were analyzed through CD25 expression and Cell Trace Violet dilution by flow cytometry (FIG. 8).
Antibodies were tested to assess their efficacy in reducing T cell suppression in the assay described in Example 12. […] T cells activation and proliferation were analyzed through CD25 expression and Cell Trace Violet dilution by flow cytometry.

[2] = Aggregation temperature (thermal shift stability assay); type: physicochemical; details: human IgG1 with L234A/L235E/G237A/A330S/P331S
Method: Antibodies mAb1-24 and prior art anti-CD39 antibody BY40, all produced as human IgG1 isotypes with L234A/L235E/G237A/A330S/P331S substitutions were tested for stability in the following reference formulation at a concentration of approximatively 7 mg/mL: pH 6.0; histidine buffer (10 mM); sucrose (200 mM); NaCl (50 mM); Polysorbate 80 (PS80) (0.2 g/L). The stability of the formulations was monitored in two storage conditions (at +5° C.±3° C. and at +40±3° C. For each study, 3 time points were performed: T0, T15D (15 days) and T1M (1 month). A freeze thaw (F/T) and a thermal shift stability assay (TSSA) were conducted for the format comparison. To perform F/T cycles, the samples were frozen at least 2 hours at −20° C. and thawed at least 1 hour at room temperature, the F/T cycle is repeated three times and samples are tested 24 h after the last Freeze/Thaw cycle. At each time point, the following tests were performed: • Particulate Matter (MFI) • Visual Inspection (Appearance) • Impurities (SE-HPLC) • Turbidity (400 nm) • Protein Concentration (280 nm) (performed with Nanodrop, Thermo Fisher Scientific Inc.)

I-394: anti-CD39 antibody, VH SEQ ID NO: 6, VL SEQ ID NO: 7, human IgG1 Fc with L234A/L235E/G237A/A330S/P331S
binding to CD39-L1 in ELISA [1]: not to any of the isoforms CD39-L1, -L2, -L3 or -L4
T cells proliferation and activation in MLR (CD25, Cell Trace Violet dilution) (allogenic CD4 T cells): resulted in higher T cells proliferation and activation
Aggregation temperature (TAgg) [2]: ~70 °C
